One block for each molecule: values may come before it.
Tests used:
[1] = biological target: T1, β3Gal-T5 (Homo sapiens, UniProt Q9Y2C3, M85T); test: Galactosyltransferase assay with glycoprotein acceptors, β3Gal-T5; format: biochemical; settings: for β3Gal-T5 activity with glycoprotein acceptor: 0.5 mg glycoprotein, 150 μM UDP-Gal
T1 construct: designed to exclude the hydrophobic transmembrane segment and to encode amino acid residues 25-310; secretion signal of vector pAcGP67B (gp67); made in house; host or cells: baculovirus; Sf9 cells (media) and High Five cells (serum-free medium, partially purified)
T1 sequence (Q9Y2C3 25-310 M85T): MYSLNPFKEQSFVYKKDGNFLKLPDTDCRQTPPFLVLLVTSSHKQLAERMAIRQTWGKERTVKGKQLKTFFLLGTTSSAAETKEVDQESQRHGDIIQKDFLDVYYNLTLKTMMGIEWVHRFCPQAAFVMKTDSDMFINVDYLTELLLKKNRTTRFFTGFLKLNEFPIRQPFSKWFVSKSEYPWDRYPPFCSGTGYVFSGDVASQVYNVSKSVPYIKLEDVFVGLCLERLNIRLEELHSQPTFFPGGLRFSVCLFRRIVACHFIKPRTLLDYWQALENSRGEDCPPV
Description: (§1) The kinetic properties were determined with partially purified, secreted forms of the enzymes. Semipurification of enzymes from serum-free medium of infected High-Five™ cells was performed by sequential Amberlite, DEAE-Sephacel and 5-Sepharose chromatography as described previously (Wandall, H. H., Hassan, H., Mirgorodskaya, E., et al. Substrate specificities of three. members of the human UDP-N-acetyl-alpha-D-galactosamine:Polypeptide Nacetylgalactosaminyltransferase family, GalNAc-T1, -T2, and -T3. J. Biol. Chem. 272:23503-23514, 1997). Comparisons of enzymes were performed relatively to the activity obtained with βGlcNAc-Bz1 (Tables II and III). Full length enzymes were assayed with 1% Triton CF54 homogenates of washed cells. Enzyme assays were performed in 50 μl total reaction mixtures containing 25 mM Cacodylate (pH 7.5), 10 mM MnCl2, 0.25% Triton X-100, 100 μM UDP-[^14C]-Gal (2,600 cpm/nmol) (Amersham), and varying concentrations of acceptor substrates (Sigma) (see Table I for structures). Reaction products were quantified by Dowex-1 chromatography. […] The transfer of Gal was evaluated after acid precipitation by filtration through Whatman GF/C glass fibre filters. […] Assays with glycolipid acceptors were conducted as previously described (Holmes, E. H. Characterization and membrane organization of beta 1-3- and beta 1-4-galactosyltransferases from human colonic adenocarcinoma cell lines Cob 205 and SW403: basis for preferential synthesis of type 1 chain lacto-series carbohydrate structures. Arch Biochem Biophys 270:630-646, 1989) in reaction mixtures containing 2.5 μmol HEPES buffer, pH 7.2, μmol MnCl2, 100 μg taurodeoxycholate or Triton CF-54, 20 μg acceptor glycolipid, 15 nmol UDP-[^14C]-galactose (13,000 cpm/nmol) and enzyme in a total volume of 100 μl. Conditions for incubation and product isolation were as previously described (Id.).

[2] = biological target: T2, β3Gal-T2 (Homo sapiens, UniProt O43825); test: Galactosyltransferase assay with glycoprotein acceptors, β3Gal-T2; format: biochemical; settings: for β3Gal-T2 activity with glycoprotein acceptor: 0.5 mg glycoprotein, 150 μM UDP-Gal
T2 construct: The kinetic properties were determined with partially purified, secreted forms of the enzymes; made in house; host or cells: baculovirus; Sf9 / High Five insect cells, medium
T2 sequence (O43825 46-422 limits assumed): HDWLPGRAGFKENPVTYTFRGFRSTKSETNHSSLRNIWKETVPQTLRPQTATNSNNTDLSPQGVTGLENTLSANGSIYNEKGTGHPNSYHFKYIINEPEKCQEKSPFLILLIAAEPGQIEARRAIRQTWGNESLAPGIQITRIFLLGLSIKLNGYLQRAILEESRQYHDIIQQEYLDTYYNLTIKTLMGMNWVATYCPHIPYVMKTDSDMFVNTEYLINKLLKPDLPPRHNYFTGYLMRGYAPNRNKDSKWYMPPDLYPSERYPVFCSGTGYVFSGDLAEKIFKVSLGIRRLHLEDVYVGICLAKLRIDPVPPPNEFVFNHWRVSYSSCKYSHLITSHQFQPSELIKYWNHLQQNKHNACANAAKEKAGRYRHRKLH
Description: as §1

[3] = biological target: T3, β3Gal-T1 (Homo sapiens, UniProt Q9Y5Z6); test: Galactosyltransferase assay with glycoprotein acceptors, β3Gal-T1; format: biochemical; settings: for β3Gal-T1 activity with glycoprotein acceptor: 0.5 mg glycoprotein, 150 μM UDP-Gal
T3 construct: The kinetic properties were determined with partially purified, secreted forms of the enzymes; made in house; host or cells: baculovirus; Sf9 / High Five insect cells, medium
T3 sequence (Q9Y5Z6 27-326 limits assumed): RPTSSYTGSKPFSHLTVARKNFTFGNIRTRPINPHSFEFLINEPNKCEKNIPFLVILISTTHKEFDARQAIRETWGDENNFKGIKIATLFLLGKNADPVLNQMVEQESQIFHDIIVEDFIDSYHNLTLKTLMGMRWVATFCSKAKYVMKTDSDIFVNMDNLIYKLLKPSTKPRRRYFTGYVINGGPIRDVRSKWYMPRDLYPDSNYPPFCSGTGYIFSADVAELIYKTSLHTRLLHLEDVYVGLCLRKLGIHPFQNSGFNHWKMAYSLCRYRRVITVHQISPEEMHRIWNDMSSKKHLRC
Description: as §1

[4] = system: human colonic β3Gal-transferase activity; settings: acceptor substrate; read-out: apparent Km, human colonic β3Gal-T activity; cited from earlier work
[5] = system: β3Gal-T activity from Colo205 cells; settings: acceptor substrate; cited from earlier work
[6] = biological target: T1, β3Gal-T5; test: Galactosyltransferase assay with glycolipid acceptors, β3Gal-T5; format: biochemical
Description: as §1

β3Gal-T5 ratio glycoprotein / β-D-GlcNAc-Bzl [1]: (0.0) | β3Gal-T5 activity with glycoprotein acceptor [1]: 0.0 mmol/min | β3Gal-T2 ratio glycoprotein / β-D-GlcNAc-Bzl [2]: (1.8) | β3Gal-T2 activity with glycoprotein acceptor [2]: 0.07 mmol/min | β3Gal-T1 ratio glycoprotein / β-D-GlcNAc-Bzl [3]: (0.3) | β3Gal-T1 activity with glycoprotein acceptor [3]: 0.01 mmol/min
Molecule: Asialo-agalacto-fetuin: glycoprotein acceptor substrate

Molecule: CC(=O)N[C@H]1[C@H](O[C@H]2[C@@H](O)[C@@H](CO)O[C@@H](O[C@H]3[C@H](O)[C@@H](O)C(O)O[C@@H]3CO)[C@@H]2O)O[C@H](CO)[C@@H](O)[C@@H]1O (stereo partly drawn) [β-D-GlcNAc(1-3)-D-β-Gal(1-4)-D-β-Glc]
Km [4]: 2900 µM

β3Gal-T5 ratio glycoprotein / β-D-GlcNAc-Bzl [1]: (0.4) | β3Gal-T5 activity with glycoprotein acceptor [1]: 0.04 mmol/min | β3Gal-T2 ratio glycoprotein / β-D-GlcNAc-Bzl [2]: (0.0) | β3Gal-T2 activity with glycoprotein acceptor [2]: 0.0 mmol/min | β3Gal-T1 ratio glycoprotein / β-D-GlcNAc-Bzl [3]: (0.0) | β3Gal-T1 activity with glycoprotein acceptor [3]: 0.0 mmol/min
Molecule: Bovine submaxillary mucin

β3Gal-T5 activity with glycolipid acceptor, Triton CF-54 ([6]; 100 μg Triton CF-54/100 μl, 20 μg glycolipid): 3.6 µmol/h/mg | β3Gal-T5 activity with glycolipid acceptor, TDOC ([6]; 100 μg taurodeoxycholate/100 μl, 20 μg glycolipid): 4.4 µmol/h/mg | Km ([6]; in the presence taurodeoxycholate, based on data points at low concentrations (substrate inhibition), read-out: apparent Km of β3Gal-T5): ~2 µM
Molecule: GlcNAcβ1-3Galβ1-4Glcβ1-Cer [Lc3]
Km [5]: 13 µM

β3Gal-T5 ratio glycoprotein / β-D-GlcNAc-Bzl [1]: (0.0) | β3Gal-T5 activity with glycoprotein acceptor [1]: 0.0 mmol/min | β3Gal-T2 ratio glycoprotein / β-D-GlcNAc-Bzl [2]: (0.0) | β3Gal-T2 activity with glycoprotein acceptor [2]: 0.0 mmol/min | β3Gal-T1 ratio glycoprotein / β-D-GlcNAc-Bzl [3]: (0.0) | β3Gal-T1 activity with glycoprotein acceptor [3]: 0.0 mmol/min
Molecule: Orosomucoid: glycoprotein acceptor substrate

β3Gal-T5 ratio glycoprotein / β-D-GlcNAc-Bzl [1]: (0.0) | β3Gal-T5 activity with glycoprotein acceptor [1]: 0.0 mmol/min | β3Gal-T2 ratio glycoprotein / β-D-GlcNAc-Bzl [2]: (0.5) | β3Gal-T2 activity with glycoprotein acceptor [2]: 0.02 mmol/min | β3Gal-T1 ratio glycoprotein / β-D-GlcNAc-Bzl [3]: (0.0) | β3Gal-T1 activity with glycoprotein acceptor [3]: 0.0 mmol/min
B1: Hen egg albumin: glycoprotein acceptor substrate (protein, UniProt P01012 2-386, looked up)
Ovalbumin: GSIGAASMEFCFDVFKELKVHHANENIFYCPIAIMSALAMVYLGAKDSTRTQINKVVRFDKLPGFGDSIEAQCGTSVNVHSSLRDILNQITKPNDVYSFSLASRLYAEERYPILPEYLQCVKELYRGGLEPINFQTAADQARELINSWVESQTNGIIRNVLQPSSVDSQTAMVLVNAIVFKGLWEKAFKDEDTQAMPFRVTEQESKPVQMMYQIGLFRVASMASEKMKILELPFASGTMSMLVLLPDEVSGLEQLESIINFEKLTEWTSSNVMEERKIKVYLPRMKMEEKYNLTSVLMAMGITDVFSSSANLSGISSAESLKISQAVHAAHAEINEAGREVVGSAEAGVDAASVSEEFRADHPFLFCIKHIATNAVLFFGRCVSP
